# Experimental data reported in patent publication US7871610B2, “Antibodies to Tie1 ectodomain” (Dyax Corp., priority 2003, dated 2011).
# “Also recorded” adds a separate entry of the source.
# B1: E3: human anti-Tie1 antibody from Fab phage library; HC SEQ ID NO:114, LC SEQ ID NO:116 (antibody, V domains shown)
# VH: EVQLLESGGGLVQPGGSLRLSCAASGFTFSMYGMVWVRQAPGKGLEWVSVISPSGGNTGYADSVKGRFTISRDNSKNTLYLQVNSLRAEDTAVYYCARAPRGYSYGYYYWGQGTLVTVSSASTKGPSVFPLAPSSKSTSGG
# VL: DIQMTQSPLSLSASVGDRVTITCRASQGIGHYLAWYQQKPGKVPKLLIYTASTLQSGVPSRFSGSGSGTDFTLTINSLQPEDVATYYCQQFNSYPHTFGQGTRLDIK
# modifications: Synthetically generated peptide
# Assays:
# [1] = target: Tie1 (Homo sapiens, UniProt P35590); assay: Tie1 phosphorylation assay in transfected COS1 cells; type: cell-based; details: COS1 cells with V5-tagged full length Tie1, serum starved, E3 IgG 200 ng/ml
# Sequence of Tie1 (P35590 22-1138): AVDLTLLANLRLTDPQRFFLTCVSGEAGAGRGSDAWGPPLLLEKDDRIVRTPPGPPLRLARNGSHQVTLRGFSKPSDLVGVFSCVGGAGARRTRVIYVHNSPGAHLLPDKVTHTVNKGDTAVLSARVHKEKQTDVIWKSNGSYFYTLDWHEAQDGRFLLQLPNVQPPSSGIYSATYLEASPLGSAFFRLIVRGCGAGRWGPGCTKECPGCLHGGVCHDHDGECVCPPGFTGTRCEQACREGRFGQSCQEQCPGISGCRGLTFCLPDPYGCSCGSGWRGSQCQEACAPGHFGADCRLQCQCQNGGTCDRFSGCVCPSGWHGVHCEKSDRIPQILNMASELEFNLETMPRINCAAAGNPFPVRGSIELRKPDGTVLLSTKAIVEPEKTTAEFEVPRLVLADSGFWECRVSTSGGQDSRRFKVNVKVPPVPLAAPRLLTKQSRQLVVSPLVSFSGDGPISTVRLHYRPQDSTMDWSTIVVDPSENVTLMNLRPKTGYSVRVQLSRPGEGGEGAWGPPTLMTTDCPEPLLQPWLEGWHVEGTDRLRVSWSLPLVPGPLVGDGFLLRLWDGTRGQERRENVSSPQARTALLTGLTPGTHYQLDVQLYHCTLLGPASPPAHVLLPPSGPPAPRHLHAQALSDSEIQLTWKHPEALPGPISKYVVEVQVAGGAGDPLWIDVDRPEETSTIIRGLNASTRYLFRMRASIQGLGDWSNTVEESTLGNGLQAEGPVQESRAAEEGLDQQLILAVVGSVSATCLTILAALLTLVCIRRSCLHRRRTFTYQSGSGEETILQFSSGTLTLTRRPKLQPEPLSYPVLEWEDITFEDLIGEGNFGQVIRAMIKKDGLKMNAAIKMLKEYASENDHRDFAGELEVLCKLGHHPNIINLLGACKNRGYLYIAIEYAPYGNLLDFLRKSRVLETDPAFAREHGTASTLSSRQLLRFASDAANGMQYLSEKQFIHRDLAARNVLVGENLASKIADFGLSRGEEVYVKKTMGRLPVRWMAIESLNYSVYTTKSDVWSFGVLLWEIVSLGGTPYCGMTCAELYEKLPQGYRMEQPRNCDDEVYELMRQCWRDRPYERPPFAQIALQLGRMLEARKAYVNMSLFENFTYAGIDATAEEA
# Method: COS1 cells were transfected with pcDNA3-Tie1-V5. After 24 h of transfection, the cells were serum starved for 8 h and then treated with E3 IgG. For the Tie1 phosphorylation assay, HDMVECs were cultured on 10 cm dishes to near confluence, starved (8-16 h) in serum free medium and stimulated as indicated. After the stimulations, the cells were lysed in lysis buffer (RIPA-DOC: 50 mM Tris-HCl pH 8.0, 150 mM NaCl, 1% Triton-X-100, 0.1% SDS, 0.5% DOC, 10 mM EDTA, supplemented with aprotinin, leupeptin, PMSF and sodium vanadate). Clarified lysates from transfected COS1 cells or HDMVECs were immunoprecipitated with anti-V5 or anti-Tie1 B9, respectively. Proteins were separated by SDS-PAGE, transferred to nitrocellulose and immunoblotted using the anti-phosphotyrosine and anti-Tie1 (R&D systems) antibodies.
# To test if the E3 IgG binding to the extracellular region of Tie1 induces autophosphorylation of Tie1, the Tie1 receptor phosphorylation level in response to E3 IgG treatment was studied in transiently transfected COS1 cells and human primary endothelial cells. COS1 cells were transfected with an expression vector containing a V5-tagged full length Tie1 cDNA, and, after serum starvation, the cells were treated with E3 IgG (200 ng/ml). […]
# [2] = test system: human platelets; assay: Flow cytometry binding to human platelets; details: non-activated human platelets, 2 and 10 μg/ml
# Method: To avoid platelet activation, human platelets were isolated from plasma of healthy donors using the platelet GelSep kit (Biocytex, Marseille, France) kit according to the guidelines of the manufacturer. Platelets were activated by the addition of thrombin to a final concentration of 0.8 U/ml. To distinguish activated from non-activated platelets double staining was performed with Tie-1 antibodies/control antibodies and antibody CD42 (total platelets) or CD62 (activated platelets).
# After preparation, platelets were resuspended in buffer 2 of the GelSep kit, 10% heat inactivated human serum (incubation buffer) and incubated for 1 hour. […] Platelets were spun down by centrifugation for 10 min at 611 g. Between incubations platelets were washed twice with Buffer 1 of the GelSep kit. Then, Strepatvidin-R-phycoerythrin together with anti-CD42-PercP or anti-CD62-PercP were incubated for 30 minutes at room temperature in incubation buffer After the last incubation and washing detection of bound antibodies was performed by means of flow cytometry on a FACSscan and Epics Altra (Becton Dickinson, Oxnard, Coulter) and results analyzed. Cells were gated on SSC and anti-CD42-PercP for the total platelets in case non-activated platelets were used and on SSC and anti-CD62-PercP for the activated platelets.
# [3] = target: T1, recombinant human Tie1-Fc (Homo sapiens, UniProt P35590); assay: BIAcore, coated E3 IgGs with recombinant human Tie-1 Fc; type: binding; details: IgG, human Tie1 Fc
# T1 construct: selected against the Tie1 extracellular domain fused to human Fc or to a histidine purification tag
# T1 sequence (P35590 22-759 limits assumed): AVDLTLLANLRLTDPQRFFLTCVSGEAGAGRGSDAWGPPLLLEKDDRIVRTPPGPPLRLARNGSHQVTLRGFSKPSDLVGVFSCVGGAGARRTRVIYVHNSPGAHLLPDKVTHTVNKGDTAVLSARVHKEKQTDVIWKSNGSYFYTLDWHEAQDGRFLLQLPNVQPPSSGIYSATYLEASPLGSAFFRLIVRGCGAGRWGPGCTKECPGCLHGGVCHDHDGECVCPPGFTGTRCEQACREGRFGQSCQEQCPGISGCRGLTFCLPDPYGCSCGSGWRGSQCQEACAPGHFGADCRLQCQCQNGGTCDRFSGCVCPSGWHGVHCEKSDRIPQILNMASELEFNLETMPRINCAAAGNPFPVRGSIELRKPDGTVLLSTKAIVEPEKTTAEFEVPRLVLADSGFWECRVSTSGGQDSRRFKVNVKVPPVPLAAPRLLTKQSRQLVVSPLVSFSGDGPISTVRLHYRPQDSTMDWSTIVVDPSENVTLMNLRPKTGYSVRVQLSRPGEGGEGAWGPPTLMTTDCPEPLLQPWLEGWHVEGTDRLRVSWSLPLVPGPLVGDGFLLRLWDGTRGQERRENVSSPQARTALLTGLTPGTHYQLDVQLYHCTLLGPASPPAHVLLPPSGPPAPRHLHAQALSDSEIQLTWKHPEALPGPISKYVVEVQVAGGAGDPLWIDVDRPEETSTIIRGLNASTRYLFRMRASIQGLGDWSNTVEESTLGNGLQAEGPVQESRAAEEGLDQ
# Method: The germlined E3 IgG1 stock solution 0.63 mg/ml was diluted 1/50 in a buffer of pH4.5 and the parental E3 IgG1 stock solution 0.56 mg/ml (2143-001) was diluted 1/50 in a buffer of pH 4.5. The IgG were directly coated onto a CM5 chip. The surface of the chips was activated with a 7 minute pulse of 0.05M NHS/0.2M EDC and the IgG was flowed over until 780RU germlined E3-IgG and 728 non germlined E3 IgG was coated onto the surface. All flow cells were subsequently deactivated with a 7 minute pulse of 1M ethanolamine hydrochloride pH 8.5. All analysis was performed in HBS buffer. Purified recombinant human Tie-1 Fc was diluted 1/28.7 in HBS to obtain a 400 nM stock solution. Serial dilutions were made to obtain 200 nM, 100 nM, 50 nM and 25 nM Tie-1 Fc stocks. For analysis of the association phase samples were injected at 30 μl/min for 8.3 minutes using kinject program. This was followed by a 40 minutes dissociation phase. Any antigen remaining associated to the surface was stripped from the IgG surface at a flow of 50 μl/min with two injections of 10 mM glycine pH 1.5 for 30 secods. All samples were run and analyzed in duplicate
# Sensorgrams were analyzed using the simultaneous ka/kd fitting program with 1:1 model in the BIAEVALUATION™ software 3.1.
molecule,measurement,setting,value
B1,time of stimulation after which Tie1 is tyrosine phosphorylated,[1],10 to 30 min
same,binding to total platelets (CD42),[2],Only a background number; also recorded: no significant binding to total platelets
same,effect of germlining on binding activity,[3],minimal impact on the binding activity
